From the supplement of paper PMC11316812
± gives the standard deviation of the averaged measurements.

Columns and labels:
hTERT-HMEC = test: percentage of EdU-negative (G0-arrested) nuclei per well, 72 h; higher = more G0 arrest; settings: reference: sequence is the full UniProt precursor, the tested protein was the secreted form or ectodomain
MCF7 = test: as above; settings: reference: sequence is the full UniProt precursor, the tested protein was the secreted form or ectodomain
[1] = protein concentration 0.0225 µM
[2] = protein concentration 0.02175 µM
[3] = protein concentration 0.2175 µM
[4] = protein concentration 0.00875 µM
[5] = protein concentration 0.0875 µM
[6] = protein concentration 0.01925 µM
[7] = protein concentration 0.1925 µM
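Further: secreted proteins added to cultured cells, EdU pulse at the end, nuclei found by Hoechst imaging, EdU status from nuclear versus surrounding ring intensity ratio, PBS as neutral control.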

MALTAHPSCLLALLVAGLAQGIRGPLRAQDLGPQPLELKEAFKLFQIQFNRSYLSPEEHAHRLDIFAHNLAQAQRLQEEDLGTAEFGVTPFSDLTEEEFGQLYGYRRAAGGVPSMGREIRSEEPEESVPFSCDWRKVASAISPIKDQKNCNCCWAMAAAGNIETLWRISFWDFVDVSVQELLDCGRCGDGCHGGFVWDAFITVLNNSGLASEKDYPFQGKVRAHRCHPKKYQKVAWIQDFIMLQNNEHRIAQYLATYGPITVTINMKPLQLYRKGVIKATPTTCDPQLVDHSVLLVGFGSVKSEEGIWAETVSSQSQPQPPHPTPYWILKNSWGAQWGEKGYFRLHRGSNTCGITKFPLTARVQKPDMKPRVSCPP
percentage of EdU-negative (hTERT-HMEC; [1]): 4.63 ± 1.3%
percentage of EdU-negative (hTERT-HMEC; protein concentration 0.225 µM): 48.2 ± 4%
percentage of EdU-negative (MCF7; [1]): 23.2 ± 3.5%
percentage of EdU-negative (MCF7; protein concentration 0.225 µM): 32.1 ± 4.7%

MALTGYSWLLLSATFLNVGAEISITLEPAQPSEGDNVTLVVHGLSGELLAYSWYAGPTLSVSYLVASYIVSTGDETPGPAHTGREAVRPDGSLDIQGILPRHSGTYILQTFNRQLQTEVGYGHVQVHEILAQPTVLANSTALVERRDTLRLMCSSPSPTAEVRWFFNGGALPVALRLGLSPDGRVLARHGIRREEAGAYQCEVWNPVSVSRSEPINLTVYFGPERVAILQDSTTRTGCTIKVDFNTSLTLWCVSRSCPEPEYVWTFNGQALKNGQDHLNISSMTAAQEGTYTCIAKNTKTLLSGSASVVVKLSAAAVATMIVPVPTKPTEGQDVTLTVQGYPKDLLVYAWYRGPASEPNRLLSQLPSGTWIAGPAHTGREVGFPNCSLLVQKLNLTDTGRYTLKTVTVQGKTETLEVELQVAPLG [Q2WEN9]
percentage of EdU-negative (hTERT-HMEC; [2]): 5.23 ± 0.14%
percentage of EdU-negative (hTERT-HMEC; [3]): 7.63 ± 2.6%
percentage of EdU-negative (MCF7; [2]): 26.4 ± 2%
percentage of EdU-negative (MCF7; [3]): 27.5 ± 2.3%

MALTLFDTDEYRPPVWKSYLYQLQQEAPHPRRITCTCEVENRPKYYGREFHGMISREAADQLLIVAEGSYLIRESQRQPGTYTLALRFGSQTRNFRLYYDGKHFVGEKRFESIHDLVTDGLITLYIETKAAEYIAKMTINPIYEHVGYTTLNREPAYKKHMPVLKETHDERDSTGQDGVSEKRLTSLVRRATLKENEQIPKYEKIHNFKVHTFRGPHWCEYCANFMWGLIAQGVKCADCGLNVHKQCSKMVPNDCKPDLKHVKKVYSCDLTTLVKAHTTKRPMVVDMCIREIESRGLNSEGLYRVSGFSDLIEDVKMAFDRDGEKADISVNMYEDINIITGALKLYFRDLPIPLITYDAYPKFIESAKIMDPDEQLETLHEALKLLPPAHCETLRYLMAHLKRVTLHEKENLMNAENLGIVFGPTLMRSPELDAMAALNDIRYQRLVVELLIKNEDILF [B8ZZ96]
percentage of EdU-negative (hTERT-HMEC; [4]): 4.91 ± 0.4%
percentage of EdU-negative (hTERT-HMEC; [5]): 6.84 ± 1.4%
percentage of EdU-negative (MCF7; [4]): 25.94 ± 0.25%
percentage of EdU-negative (MCF7; [5]): 26.7 ± 0.53%

MALVRALVCCLLTAWHCRSGLGLPVAPAGGRNPPPAIGQFWHVTDLHLDPTYHITDDHTKVCASSKGANASNPGPFGDVLCDSPYQLILSAFDFIKNSGQEASFMIWTGDSPPHVPVPELSTDTVINVITNMTTTIQSLFPNLQVFPALGNHDYWPQDQLPVVTSKVYNAVANLWKPWLDEEAISTLRKGGFYSQKVTTNPNLRIISLNTNLYYGPNIMTLNKTDPANQFEWLESTLNNSQQNKEKVYIIAHVPVGYLPSSQNITAMREYYNEKLIDIFQKYSDVIAGQFYGHTHRDSIMVLSDKKGSPVNSLFVAPAVTPVKSVLEKQTNNPGIRLFQYDPRDYKLLDMLQYYLNLTEANLKGESIWKLEYILTQTYDIEDLQPESLYGLAKQFTILDSKQFIKYYNYFFVSYDSSVTCDKTCKAFQICAIMNLDNISYADCLKQLYIKHNY
percentage of EdU-negative (hTERT-HMEC; [6]): 4.69 ± 0.32%
percentage of EdU-negative (hTERT-HMEC; [7]): 15.5 ± 1.9%
percentage of EdU-negative (MCF7; [6]): 26.4 ± 2.1%
percentage of EdU-negative (MCF7; [7]): 28.3 ± 3.7%

MALWRGSAYAGFLALAVGCVFLLEPELPGSALRSLWSSLCLGPAPAPPGPVSPEGRLAAAWDALIVRPVRRWRRVAVGVNACVDVVLSGVKLLQALGLSPGNGKDHSILHSRNDLEEAFIHFMGKGAAAERFFSDKETFHDIAQVASEFPGAQHYVGGNAALIGQKFAANSDLKVLLCGPVGPKLHELLDDNVFVPPESLQEVDEFHLILEYQAGEEWGQLKAPHANRFIFSHDLSNGAMNMLEVFVSSLEEFQPDLVVLSGLHMMEGQSKELQRKRLLEVVTSISDIPTGIPVHLELASMTNRELMSSIVHQQVFPAVTSLGLNEQELLFLTQSASGPHSSLSSWNGVPDVGMVSDILFWILKEHGRSKSRASDLTRIHFHTLVYHILATVDGHWANQLAAVAAGARVAGTQACATETIDTSRVSLRAPQEFMTSHSEAGSRIVLNPNKPVVEWHREGISFHFTPVLVCKDPIRTVGLGDAISAEGLFYSEVHPHY [Q9BRR6]
percentage of EdU-negative (hTERT-HMEC; [1]): 4.76 ± 0.58%
percentage of EdU-negative (hTERT-HMEC; protein concentration 0.225 µM): 5.82 ± 0.78%
percentage of EdU-negative (MCF7; [1]): 24.8 ± 1%
percentage of EdU-negative (MCF7; protein concentration 0.225 µM): 24 ± 2.1%
